The labels stand for the following.
B1: Next to BRCA1 gene 1 protein (Homo sapiens), Q14596 (parent)
chain: MEPQVTLNVTFKNEIQSFLVSDPENTTWADIEAMVKVSFDLNTIQIKYLDEENEEVSINSQGEYEEALKMAVKQGNQLQMQVHEGHHVVDEAPPPVVGAKRLAARAGKKPLAHYSSLVRVLGSDMKTPEDPAVQSFPLVPCDTDQPQDKPPDWFTSYLETFREQVVNETVEKLEQKLHEKLVLQNPSLGSCPSEVSMPTSEETLFLPENQFSWHIACNNCQRRIVGVRYQCSLCPSYNICEDCEAGPYGHDTNHVLLKLRRPVVGSSEPFCHSKYSTPRLPAALEQVRLQKQVDKNFLKAEKQRLRAEKKQRKAEVKELKKQLKLHRKIHLWNSIHGLQSPKSPLGRPESLLQSNTLMLPLQPCTSVMPMLSAAFVDENLPDGTHLQPGTKFIKHWRMKNTGNVKWSADTKLKFMWGNLTLASTEKKDVLVPCLKAGHVGVVSVEFIAPALEGTYTSHWRLSHKGQQFGPRVWCSIIVDPFPSEESPDNIEKGMISSSKTDDLTCQQEETFLLAKEERQLGEVTEQTEGTAACIPQKAKNVASERELYIPSVDLLTAQDLLSFELLDINIVQELERVPHNTPVDVTPCMSPLPHDSPLIEKPGLGQIEEENEGAGFKALPDSMVSVKRKAENIASVEEAEEDLSGTQFVCETVIRSLTLDAAPDHNPPCRQKSLQMTFALPEGPLGNEKEEIIHIAEEEAVMEEEEDEEDEEEEDELKDEVQSQSSASSEDYIIILPECFDTSRPLGDSMYSSALSQPGLERGAEGKPGVEAGQEPAEAGERLPGGENQPQEHSISDILTTSQTLETVPLIPEVVELPPSLPRSSPCVHHHGSPGVDLPVTIPEVSSVPDQIRGEPRGSSGLVNSRQKSYDHSRHHHGSSIAGGLVKGALSVAASAYKALFAGPPVTAQPIISEDQTAALMAHLFEMGFCDRQLNLRLLKKHNYNILQVVTELLQLNNNDWYSQRY
B2: Next to BRCA1 gene 1 protein (Homo sapiens), Q14596 (parent)
chain: B1 chain
partner: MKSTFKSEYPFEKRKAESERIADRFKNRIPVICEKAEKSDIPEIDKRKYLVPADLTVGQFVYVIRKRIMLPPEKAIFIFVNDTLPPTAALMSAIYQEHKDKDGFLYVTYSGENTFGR

In test [1] the parent is B1. Conditions: with gbrap_human GABARAP.
Variants of B1 are the subject of test [2]. To be noted: with gbrl2_human GABARAPL2, P60520.
The variants in test [3] derive from B1. To be noted: with mlp3b_human MAP1LC3B.
In the test “atg8_yeast ATG8, P38182” the parent is B2. Conditions: with atg8_yeast ATG8, P38182.

Chain of gbrl2_human GABARAPL2, P60520 (P60520 whole entry): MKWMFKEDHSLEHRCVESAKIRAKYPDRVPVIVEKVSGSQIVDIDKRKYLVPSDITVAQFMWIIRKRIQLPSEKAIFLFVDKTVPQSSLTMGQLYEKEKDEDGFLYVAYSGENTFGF

Consider Y732A, for which the “effect of a mutation on the interaction” value in test [1], in test [2] and in test [3] was “decreasing interaction” in each case.

As for Y732A, the “effect of a mutation on the interaction” value with atg8_yeast ATG8, P38182 is “decreasing interaction”.

These data come from IntAct's records for PubMed 19250911.
